# B1: PGT121.60 hIgG1/hLambda (antibody)
# heavy: QMQLQESGPGLVKPSETLSLTCSVSGASISDSYWSWIRRSPGKGLEWIGYVHKSGDTNYNPSLKSRVHLSLDTSKNQVSLSLTGVTAADSGKYYCARTLHGRRIYGIVAFNEWFTYFYMDVWGTGTQVTVSSASTKGPSVFPLAPSSKSTSGGTAALGCLVKDYFPEPVTVSWNSGALTSGVHTFPAVLQSSGLYSLSSVVTVPSSSLGTQTYICNVNHKPSNTKVDKKVEPKSCDKTHTCPPCPAPELLAGPDVFLFPPKPKDTLMISRTPEVTCVVVDVSHEDPEVKFNWYVDGVEVHNAKTKPREEQYNSTYRVVSVLTVLHQDWLNGKEYKCKVSNKALPLPEEKTISKAKGQPREPQVYTLPPSREEMTKNQVSLTCLVKGFYPSDIAVEWESNGQPENNYKTTPPVLDSDGSFFLYSKLTVDKSRWQQGNVFSCSVLHEALHSHYTQKSLSLSPGK
# light: not shown
# B2: PGT121.60 hIgG1/hLambda (antibody)
# heavy: B1 heavy
# light: not shown
# Experiments:
# [1] = target: HIV-1 BaL Env (on virus) (HIV-1 strain BaL); test: cell-based or functional assay
# [2] = target: HIV-1 92US727 Env (on virus) (HIV-1 isolate 92US727); test: cell-based or functional assay
# [3] = target: HIV-1 92US712 Env (on virus) (HIV-1 isolate 92US712); test: cell-based or functional assay
# [4] = target: HIV-1 93HT593 Env (on virus) (HIV-1 isolate 93HT593); test: cell-based or functional assay
# [5] = target: HIV-1 92US657 Env (on virus) (HIV-1 isolate 92US657); test: cell-based or functional assay
# [6] = target: HIV-1 Env of subtype B virus 15-124986 (HIV-1); test: cell-based or functional assay
# [7] = target: HIV-1 Env of subtype B virus 15-102514 (HIV-1); test: cell-based or functional assay
# [8] = target: HIV-1 Env of subtype B virus 15-124962 (HIV-1); test: cell-based or functional assay
# [9] = target: HIV-1 Env of subtype B virus 15-124970 (HIV-1); test: cell-based or functional assay
# [10] = target: HIV-1 Env of subtype B virus 15-124950 (HIV-1); test: cell-based or functional assay
# [11] = target: HIV-1 Env of subtype B virus 15-124934 (HIV-1); test: cell-based or functional assay
# [12] = target: HIV-1 Env of subtype B virus 15-124906 (HIV-1); test: cell-based or functional assay
# [13] = target: HIV-1 Env of subtype B virus 15-101608 (HIV-1); test: cell-based or functional assay
# [14] = target: HIV-1 Env of subtype B virus 15-124963 (HIV-1); test: cell-based or functional assay
# [15] = target: HIV-1 Env of subtype B virus 15-124987 (HIV-1); test: cell-based or functional assay
# [16] = target: HIV-1 Env of subtype B virus 15-124918 (HIV-1); test: cell-based or functional assay
# [17] = target: HIV-1 Env of subtype B virus 15-124975 (HIV-1); test: cell-based or functional assay
# [18] = target: HIV-1 Env of subtype B virus 15-101757 (HIV-1); test: cell-based or functional assay
# [19] = target: HIV-1 Env of subtype B virus 15-124914 (HIV-1); test: cell-based or functional assay
# [20] = target: HIV-1 Env of subtype B virus 15-124964 (HIV-1); test: cell-based or functional assay
# [21] = target: HIV-1 Env of subtype B virus 15-124904 (HIV-1); test: cell-based or functional assay
# [22] = target: T1, Human FcRn (human, UniProt P55899 24-297; P61769 21-119); test: ELISA, FcRn coated on plate, pH 6.0
# T1 construct: also called neonatal Fc receptor
# T1 sequence (P55899 24-297 limits assumed, chain 1 of 2): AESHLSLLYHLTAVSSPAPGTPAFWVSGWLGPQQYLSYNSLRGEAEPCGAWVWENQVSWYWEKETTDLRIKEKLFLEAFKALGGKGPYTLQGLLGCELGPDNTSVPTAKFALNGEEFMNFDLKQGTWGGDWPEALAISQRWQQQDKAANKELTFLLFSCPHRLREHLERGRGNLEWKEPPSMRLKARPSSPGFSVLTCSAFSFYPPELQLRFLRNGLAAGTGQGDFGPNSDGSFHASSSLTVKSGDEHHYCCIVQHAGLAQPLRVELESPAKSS
# T1 sequence (P61769 21-119 limits assumed, chain 2 of 2): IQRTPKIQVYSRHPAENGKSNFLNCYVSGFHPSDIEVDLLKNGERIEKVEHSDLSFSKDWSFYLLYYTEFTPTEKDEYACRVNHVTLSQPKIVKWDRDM
# Method: (§1) The binding of antibodies to FcRn of various species at different pHs was determined. A 96-well Maxisorp plate was coated with 100 ul of 5 μg/ml FcRn. The plate was incubated overnight at 4° C., and then blocked with 4% skim milk for 2 hr at room temperature after washing 3 times with 0.05% Tween 20 washing buffer. The plate was incubated with 3 fold serial dilution of primary antibody for 1 hr at room temperature. The plate was then washed 3 times and 100 of Fab-anti-human Fab-HRP or Goat anti-human IgG-HRP secondary antibody diluted in 4% skimmed milk was added. Plates were then incubated 50 min at room temperature, washed three times, and 100 μL fresh TMB substrate was added. Plates were developed for 3 minutes on bench with gentle shaking. Plate was quenched with 100 μL 1M HCl, shaken briefly, read at A450 on a spectramax m5 plate reader.
# [23] = target: HIV-1 Env of subtype B isolate MGRM-B-115 (HIV-1); test: cell-based or functional assay
# [24] = target: HIV-1 Env of subtype B isolate MGRM-B-105 (HIV-1); test: cell-based or functional assay
# [25] = target: HIV-1 Env of subtype B isolate MGRM-B-111 (HIV-1); test: cell-based or functional assay
# [26] = target: HIV-1 Env of subtype B isolate MGRM-B-136 (HIV-1); test: cell-based or functional assay
# [27] = target: HIV-1 Env of subtype B isolate MGRM-B-112 (HIV-1); test: cell-based or functional assay
# [28] = target: HIV-1 Env of subtype B isolate MGRM-B-106 (HIV-1); test: cell-based or functional assay
# [29] = target: HIV-1 Env of subtype B isolate MGRM-B-110 (HIV-1); test: cell-based or functional assay
# [30] = target: HIV-1 Env of subtype B isolate MGRM-B-132 (HIV-1); test: cell-based or functional assay
# [31] = target: HIV-1 Env of subtype B isolate MGRM-B-118 (HIV-1); test: cell-based or functional assay
# [32] = target: T1, Human FcRn; test: ELISA, ratio of EC50 at pH 7.0 to EC50 at pH 6.0
# Method: as §1
# [33] = target: T1, Human FcRn; test: ELISA, FcRn coated on plate, pH 7.0
# Method: as §1
# [34] = target: T1, Human FcRn; test: ELISA, pH 7.0/6.0 ratio relative to PGT121
# Method: as §1
# [35] = target: human FcγRIIIA on primary NK effector cells (human, UniProt P08637 17-254); test: cell-based or functional assay
# human FcγRIIIA on primary NK effector cells, sequence (P08637 17-254): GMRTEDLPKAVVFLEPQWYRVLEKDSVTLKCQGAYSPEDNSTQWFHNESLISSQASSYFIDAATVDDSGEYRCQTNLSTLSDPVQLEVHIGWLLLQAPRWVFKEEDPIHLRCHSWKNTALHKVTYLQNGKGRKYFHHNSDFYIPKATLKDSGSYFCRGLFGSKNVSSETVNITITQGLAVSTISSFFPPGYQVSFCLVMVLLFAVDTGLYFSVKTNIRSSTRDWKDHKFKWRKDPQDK
binder,measurement,setting,value
B1,"neutralization IC50, HIV-1 BaL, CEM.NKr.CCR5.Luc assay",[1],7 ng/mL
same,"neutralization IC50, HIV-1 US727, CEM.NKr.CCR5.Luc assay",[2],7 ng/mL
same,"neutralization IC50, HIV-1 US712, CEM.NKr.CCR5.Luc assay",[3],8 ng/mL
same,"neutralization IC50, HIV-1 HT593, CEM.NKr.CCR5.Luc assay",[4],0.141 µg/mL
same,"neutralization IC50, HIV-1 US657, CEM.NKr.CCR5.Luc assay",[5],0.062 µg/mL
B2,PGT121 IC50/PGT121.60 IC50,[6],3.2 fold
same,neutralization IC50,[6],1.5 ng/mL
same,PGT121 IC50/PGT121.60 IC50,[7],3.5 fold
same,neutralization IC50,[7],0.0128 µg/mL
same,PGT121 IC50/PGT121.60 IC50,[8],3.4 fold
same,neutralization IC50,[8],0.0277 µg/mL
same,PGT121 IC50/PGT121.60 IC50,[9],3.9 fold
same,neutralization IC50,[9],0.0285 µg/mL
same,PGT121 IC50/PGT121.60 IC50,[10],3 fold
same,neutralization IC50,[10],0.0995 µg/mL
same,PGT121 IC50/PGT121.60 IC50,[11],12.1 fold
same,neutralization IC50,[11],0.797 µg/mL
same,PGT121 IC50/PGT121.60 IC50,[12],5.3 fold
same,neutralization IC50,[12],0.0103 µg/mL
same,PGT121 IC50/PGT121.60 IC50,[13],3.6 fold
same,neutralization IC50,[13],1.84 µg/mL
same,PGT121 IC50/PGT121.60 IC50,[14],8.2 fold
same,neutralization IC50,[14],2.05 µg/mL
same,PGT121 IC50/PGT121.60 IC50,[15],3.1 fold
same,neutralization IC50,[15],0.0163 µg/mL
same,PGT121 IC50/PGT121.60 IC50,[16],3 fold
same,neutralization IC50,[16],1.8 ng/mL
same,PGT121 IC50/PGT121.60 IC50,[17],5.5 fold
same,neutralization IC50,[17],0.105 µg/mL
same,PGT121 IC50/PGT121.60 IC50,[18],4.7 fold
same,neutralization IC50,[18],0.0132 µg/mL
same,PGT121 IC50/PGT121.60 IC50,[19],3 fold
same,neutralization IC50,[19],2 ng/mL
same,PGT121 IC50/PGT121.60 IC50,[20],3.5 fold
same,neutralization IC50,[20],2.6 ng/mL
same,PGT121 IC50/PGT121.60 IC50,[21],3.1 fold
same,neutralization IC50,[21],0.0121 µg/mL
same,EC50,[22],0.22 nM
same,PGT121 IC50/PGT121.60 IC50,[23],1.7 fold
same,neutralization IC50,[23],0.141 µg/mL
same,PGT121 IC50/PGT121.60 IC50,[24],2.9 fold
same,neutralization IC50,[24],7.6 ng/mL
same,PGT121 IC50/PGT121.60 IC50,[25],2.2 fold
same,neutralization IC50,[25],0.955 µg/mL
same,PGT121 IC50/PGT121.60 IC50,[26],1.2 fold
same,neutralization IC50,[26],7.1 ng/mL
same,PGT121 IC50/PGT121.60 IC50,[27],2.5 fold
same,neutralization IC50,[27],5.8 ng/mL
same,PGT121 IC50/PGT121.60 IC50,[28],4.1 fold
same,neutralization IC50,[28],1 ng/mL
same,PGT121 IC50/PGT121.60 IC50,[29],3.3 fold
same,neutralization IC50,[29],0.0113 µg/mL
same,PGT121 IC50/PGT121.60 IC50,[30],1.2 fold
same,neutralization IC50,[30],7.7 ng/mL
same,PGT121 IC50/PGT121.60 IC50,[31],0.7 fold
same,neutralization IC50,[31],3.31 µg/mL
same,Ratio pH 7.0/6.0,[32],355
same,EC50,[33],78 nM
same,Fold vs PGT121,[34],11 fold
same,"ADCC AUC, NK donor A4813, primary CD4+ T cells infected with HT593",[35],185
same,"ADCC AUC, NK donor A4813, primary CD4+ T cells infected with US657",[35],220
same,"ADCC EC50, NK donor A4813, primary CD4+ T cells infected with HT593",[35],0.7 nM
same,"ADCC EC50, NK donor A4813, primary CD4+ T cells infected with US657",[35],1.2 nM
same,"ADCC Emax, NK donor A4813, primary CD4+ T cells infected with HT593",[35],67%
same,"ADCC Emax, NK donor A4813, primary CD4+ T cells infected with US657",[35],72%

# Reference: patent US20210155676A1 (Gilead, published 2021)
